Laboratory results as given in patent US5597705.

Columns and labels:
[1] = system: thyroid hormone (T3) receptor, GC2 nuclear extract (Rattus norvegicus); test: pulldown; conditions: equilibrium binding constant by ABCD assay; buffer A, poly(dI-dC), 22 C
[2] = system: thyroid hormone (T3) receptor, GC2 nuclear extract (Rattus norvegicus); test: cell_activity; conditions: G29TK one copy, T3 stimulation of CAT in GC2 cells; three copies five-fold
[3] = system: glucocorticoid receptor alpha (hGR, pRShGR-alpha) (Homo sapiens); test: cell_activity; conditions: CAT activity with DEX in CV-1 cells; wild-type reference

G209-146 (rat GH -209 to -146)
Kd [1]: 1.4 nM

G186-158 (rat GH -186 to -158)
activity [2]: 2.9 fold

MMTV LTR (GMCAT)
activity [3]: 100%
